Measurements as given in CN112980885A (HENGYI BIOMEDICAL TECH SHANGHAI CO LTD, dated 2021).

B1: 抗体15A7 (antibody, V domains shown)
VH: QVQLVQSGAEVKKPGASVKVSCKASGYTFTSYDINWVRQASGQGLEWMGWMNPNSANPGYAQKFQGRVTMTRNTSISTAFMELSSLRSDDTAVYYCARARVTIHYDILTGYYSNAFDIWGQGTMVAVSS
VL: DIQMTQSPSSLSASVGDRVTITCRASQTISSYLNWYQQKPGKAPKLLIYAASSLQSGVPSRFSGSGSGADFTLTISSLQPEDFATYYCQQSYTTFMYTFGQGTMLEIK
B2: 抗体37G2 (antibody, V domains shown)
VH: QVQLVQSGAEVKKPGSSVKVSCKASGGTFSSYAITWVRQAPGQGLEWMGGIIPIFGTANFAQKFQGRVTITADESTSTAYMELSSLRSEDTAVYYCAHLGGFADPFDYWGQGTLVTVSS
VL: EIVLTQSPATLSLSPGERATLSCRASQSVSNYLAWYQQKAGQAPRVLIYDAFNRATGIPARFSGSGSGTDFTLTISSLEPEDFAVYYCQQRSNWPPRITFGQGTRLEIK
B3: 抗体31C2 (antibody, V domains shown)
VH: QVQLVQSGAEVKKPGSSVKVSCKASGGTFSSYAISWVRQAPGQGLEWMGGIIPIFGTTNYAQKFQGRVTITADESTSTAYMELNSLRSEDTAVYYCAGRSAYGDKGYYFDYWGQGTLVTVSS
VL: EIVLTQSPATLSLSPGERATLSCRASQSVSNFLAWYQQKPGQAPRLLIYDASNRATGIPARFSGSGSGTDFTLTISSLQPEDFAVYYCQQRSNWPPQETFGQGTKVEIK

What follows are binders tested against 真实SARS-CoV-2(活病毒) (assay: cell-based or functional assay).

| Binder | EC50 (活病毒在Vero-E6细胞中的活体外中和分析) [µg/mL] |
| --- | --- |
| B1 | 0.61 |
| B2 | 1.37 |
| B3 | 0.57 |
